Laboratory results published in publication PMC5931981, “Identification of a pyrophosphate-dependent kinase and its donor selectivity determinants” (Nature Communications, 2018).

How the values were obtained:
TM0415 = target: T1, TM0415 (Thermotoga maritima, UniProt Q9WYP6); experiment: X-ray crystal structure; format: binding; conditions: untagged
T1 construct: gene TM_0415; synthetic gene in pET-15b, E. coli BL21(DE3)pLysS; N-terminal His-tag for activity and kinetics; untagged for crystallization; monomer
T1 sequence (Q9WYP6 1-286): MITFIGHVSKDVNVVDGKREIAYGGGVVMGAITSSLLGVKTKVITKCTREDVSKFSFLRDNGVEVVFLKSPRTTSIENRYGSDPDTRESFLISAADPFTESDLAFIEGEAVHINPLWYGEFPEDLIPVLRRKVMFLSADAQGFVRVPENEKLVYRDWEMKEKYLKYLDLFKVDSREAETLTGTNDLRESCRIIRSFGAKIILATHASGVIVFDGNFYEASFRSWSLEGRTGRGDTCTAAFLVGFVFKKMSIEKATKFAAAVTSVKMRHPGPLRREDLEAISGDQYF

malachite green Pi assay [1] = substrate: O=P(O)(O)OP(=O)(O)O; experiment: malachite green Pi assay; format: biochemical, Thermotoga maritima; conditions: myo-inositol as acceptor, 500 µM MgCl2, 50 mM MES-NaOH pH 6.1, 70 °C, His-tagged, upper limit, velocity constant at 15-500 µM
malachite green Pi assay [2] = substrate: O[C@H]1[C@H](O)[C@@H](O)[C@H](O)[C@@H](O)[C@H]1O; experiment: malachite green Pi assay; format: biochemical, Thermotoga maritima; conditions: PPi as phosphate donor, 500 µM MgCl2, 50 mM MES-NaOH pH 6.1, 70 °C, His-tagged

## O[C@H]1[C@H](O)[C@@H](O)[C@H](O)[C@@H](O)[C@H]1O [myo-inositol]
TM0415; phosphate-acceptor site, with PCP and Mg2+, also in sulfate complex 5YSQ
  X-ray crystal structure: D11, N78, Q141, and R145 in TM0415 interact with four of the six hydroxyl groups

## O=P(O)(O)CP(=O)(O)O [PCP]
TM0415; phosphate-donor site, chain A, with Mg2+ and myo-inositol
  X-ray crystal structure: Chain A was complexed with PCP, a magnesium ion, and myo-inositol

B1: TM0415 (Thermotoga maritima MSB8) (protein)
chain: T1 sequence (Q9WYP6 1-286)
notes: synthetic gene in pET-15b, E. coli BL21(DE3)pLysS; N-terminal His-tag for activity and kinetics; untagged for crystallization; monomer
Malachite green Pi assay [1]
  kcat: ~9.5 s⁻¹
Malachite green Pi assay [2]
  Km: 12 ± 2 mM
  kcat: 10.8 ± 0.3 s⁻¹
